Reference: paper PMC6186785, “Discovery of Bacterial Deaminases That Convert 5-Fluoroisocytosine Into 5-Fluorouracil” (Frontiers in Microbiology, 2018)

How the values were obtained:
Test in all cases: purified protein
purified protein [1] = substrate: Nc1nccc(O)n1; settings: 50 mM Tris-HCl pH 8.0, 21 °C, substrate range 5–700 μM
purified protein [2] = substrate: Nc1ncc(F)c(=O)[nH]1; type: biochemical, uncultured Hafnia sp.; settings: 50 mM Tris-HCl pH 8.0, 21 °C
purified protein [3] = substrate: Nc1ncc(F)c(=O)[nH]1; type: biochemical, uncultured Pseudomonas sp.; settings: 50 mM Tris-HCl pH 8.0, 21 °C, sentence prints 'isocytosine', evident slip for 5-fluoroisocytosine (second URA3 set, after Vcz 5-fluoroisocytosine)

Row | Protein | Km (purified protein [1]) [µM] | kcat (purified protein [1]) [s⁻¹] | Km (purified protein [2]) [µM] | kcat (purified protein [2]) [s⁻¹] | Km (purified protein [3]) [µM] | kcat (purified protein [3]) [s⁻¹]
1 | Vcz deaminase (uncultured Hafnia sp.; H2D) (protein, full-length ORF, C-terminal 6xHis (pET28a NcoI/XhoI), E. coli BL21(DE3); primers encode N-terminus MDKRTL and C-terminus NRHRL before LE-tag) MDKRTLLFKNAELLVTMDDERREIRGGCLLVEGNRIVAVGGDELCAAPADEEIDLRGHIVIPGLINTHHHMFQSLTRVIPDAQDGELFDWLNNLYPIWAGLTPEMIRISTQTAMAELMLSGCTTSSDHLYVYPNGCRLDDSIDGAREIGMRFHACRGSMSVGRSKGGLPPDELVENEQAILEDSLRLIHSYHDAQRYSMLRIALAPCSPFSVSRELMVKTAQMAREQGVSLHTHLAENDSDVSYSQTHFGMTPAQYAEDLGWVGSDVWHAHCVKLDRAGISLFARTGTGVAHCPCSNMRLASGIAPIRAMLDEGVSVGLGVDGSASNDAGNMIAETRQAMLLQRVGFGPDAMNARQALEIATRGGAKVLNRDDIGYLATGMAADFVAFDLNTLNLAGAKHDPLAALVFCTPGNVAFSVINGQVVIREGVLQTIDLPSVVQQHNRLACLLVNRHRL | 1860 ± 45 | 1.64 ± 0.06 | 1270 ± 128 | 0.1 ± 0.007 | – | –
2 | URA3 deaminase (uncultured Pseudomonas sp.) (protein, full-length ORF, C-terminal 6xHis (pET21b NdeI/XhoI), E. coli BL21(DE3); primers encode N-terminus MAKTLL and C-terminus VMGE before LE-tag) MAKTLLVKNAELLVTMDGQRREIRQGGMFIEDNRIVQVGPAAELPQTADEVLDLKGKVVIPGLVNTHHHMYQSLTRVVPAAQDGELFNWLTNLYPIWARLTPEMIQVSTQTAMAELILSGCTTSSDHLYIYPNGCKLDDSIHAAGEIGMRFHAARGSMSVGRSQGGLPPDSVVEKEADILKESQRLIEDYHDAAHGSMLRVVVAPCSPFSVSRDLMREAAVLARNYGVSLHTHLAENVNDIAYSREKFGMTPAEYAEDLGWVGHDVWHAHCVQLDEHGIELFARTGTGVAHCPCSNMRLASGIAPVRRMRDAGVPVGLGVDGSASNDGASMIGEVRQALLLQRVGFGPDAMTAREALEIATLGGAKVLNRDDIGALAPGMVADFVAFDLNHIAYAGALHDPLAALVFCTPTHVSTSVINGKVVVRDGQLVTVDLPRVLERHNQLARQLVMGE | 1085 ± 120 | 2.00 ± 0.15 | – | – | 1330 ± 305 | 0.02 ± 0.003
